Reference: patent US11255842B2, “Methods for detecting neutralizing antibodies to parathyroid hormone (PTH) and parathyroid hormone-related peptide (PTHRP) analog” (Radius Health, Inc., priority 2019, dated 2022)

Key:
[1] = in vivo; cited from earlier work
[2] = biological target: T1, PTH1R (Rattus norvegicus, UniProt P25961); assay: PTH dose response, cAMP induction in UMR-106 cells in 25% pooled human serum; format: cell-based; conditions: interpolated from curve fit, rounded
T1 construct: any cells that express PTH1R and allows the induction of cAMP signaling; host or cells: UMR-106 rat osteosarcoma cells
T1 sequence (P25961 27-591): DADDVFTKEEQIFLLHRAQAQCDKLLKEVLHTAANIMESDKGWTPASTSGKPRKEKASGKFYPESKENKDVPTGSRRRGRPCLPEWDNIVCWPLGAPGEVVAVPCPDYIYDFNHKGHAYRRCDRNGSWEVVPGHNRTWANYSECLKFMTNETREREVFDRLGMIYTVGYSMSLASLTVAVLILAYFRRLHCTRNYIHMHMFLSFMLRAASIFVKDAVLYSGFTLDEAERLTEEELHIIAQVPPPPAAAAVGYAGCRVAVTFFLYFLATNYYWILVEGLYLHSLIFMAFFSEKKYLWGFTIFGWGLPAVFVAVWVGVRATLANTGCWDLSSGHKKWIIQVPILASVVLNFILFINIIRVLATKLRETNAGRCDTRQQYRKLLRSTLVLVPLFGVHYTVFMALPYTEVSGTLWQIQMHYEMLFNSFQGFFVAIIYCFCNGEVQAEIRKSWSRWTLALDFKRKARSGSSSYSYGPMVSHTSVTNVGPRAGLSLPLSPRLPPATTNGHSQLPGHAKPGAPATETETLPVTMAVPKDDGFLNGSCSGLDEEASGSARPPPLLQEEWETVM
Description: (§1) UMR-106 cells are maintained in growth medium (UMR-GM, Dulbecco's Modified Eagle's Medium (DMEM) containing 10% Fetal Bovine Serum, 1% Pen-Strep (10 k units Penicillin—10 k ug/mL Streptomycin) and 1% L-glutamine) in 75-150 cm^2 tissue culture flasks until ready for use. Cells are split at a ratio between 1:4 and 1:20 when growth reaches ≥70% confluence for routing culture maintenance. Prior to initiating an assay, cells are plated in sub-culturing flasks (25 cm^2 to 150 cm^2) at a density of 10^6 cells/5 cm^2 (example 5e6 cells for T-75). The following day, flasks are starved with assay medium (UMR-Am, Phenol Red-Free DMEM, containing 1% Bovine Serum Albumin). The following day validation samples and antibody controls are pre-incubated with PTH peptide for a minimum of 30 minutes. The validation samples and controls are adjusted such that the final assay concentration of serum is equal to the assay minimum required dilution of 1:4. Twenty microliters of samples and/or controls are placed on a MSD cAMP assay plate. […] Forty microliters of the cell suspension are added to the cAMP assay plate. […] One hundred microliters of 2×MSD Read Buffer T are then added to the plates and plates are read immediately on an MSD 6000 or 56000 Sector Imager. […]

[3] = biological target: T1, PTH1R; assay: PTHrP dose response, cAMP induction in UMR-106 cells; format: cell-based; conditions: interpolated from curve fit, rounded
Description: as §1, with “PTHrP” for “PTH peptide”, “S6000” for “56000”

Q: For “Abaloparatide: parathyroid hormone-related peptide (PTHrP) (1-34) analog which acts as a PTH1 receptor (PTH1R) agonist”, which “antibody-positive patients who developed neutralizing antibodies to Abaloparatide” value [1] is on record?
A: Its value is 68%.

Q: What about the “patients who developed anti-Abaloparatide antibodies” value [1] of the same substance?
A: Its value is 49%.

Q: And the “patients who developed cross-reactivity to PTHrP” value [1]?
A: The value was 2.3%.

Q: What about the “patients who developed cross-reactivity to parathyroid hormone (PTH)” value [1] of the same substance?
A: The value was 0%.

Q: What about the “patients who developed neutralizing antibodies to PTHrP” value [1] of the same substance?
A: The value was 43%.

Q: What does the source list for “PTH: Parathyroid Hormone Peptide (1-34)(Human), Phoenix Pharmaceuticals P/N 055-08”?
A: EC20 of the PTH response [2]: 0.728 ng/mL; EC30 of the PTH response [2]: 0.436 ng/mL

Q: For “PTHrP: PTHrP (1-34)(Human, Rat, Mouse) peptide, Phoenix Pharmaceuticals P/N 056-04”, which “EC20 of the PTHrP response” value [3] is on record?
A: The value was 0.728 ng/mL.

Q: And the “EC30 of the PTHrP response” value [3]?
A: The value was 0.436 ng/mL.
